Measured values reported in patent US20150044245A1, “PARTIAL MHC CONSTRUCTS AND METHODS OF USE” (Oregon Health & Science University, priority 2012, published 2015).
One block for each molecule: values may come before it.

Columns and labels:
[1] = tested on: mMOG-35-55-induced EAE in DR*1501-Tg mice
[2] = biological target: CD74 (MHC class II invariant chain) of DR*1501-Tg mouse splenocytes and monocytes (mouse) (UniProt P04441)
[3] = biological target: low affinity binding site for RTL on DR*1501-Tg mouse splenocytes; test: competition of unlabeled construct with labeled RTL1000 (280 nM) on DR*1501-Tg splenocytes; low affinity site
[4] = biological target: high affinity binding site for RTL on DR*1501-Tg mouse splenocytes; test: competition of unlabeled construct with labeled RTL1000 (280 nM) on DR*1501-Tg splenocytes; high affinity site
[5] = biological target: high affinity binding site for RTL on DR*1501-Tg mouse splenocytes; test: saturation binding to 2 million spleen cells on ice; urea lysis, SDS-PAGE, fluorescence densitometry; two-site fit
[6] = biological target: low affinity binding site for RTL on DR*1501-Tg mouse splenocytes; test: as above
[7] = biological target: low affinity binding site for RTL on MHC class II deficient mouse splenocytes; test: competition of unlabeled construct with labeled RTL1000 on MHC class II deficient mouse splenocytes; low affinity site
[8] = biological target: four-domain MHC class II from DR*1501-Tg mice (human transgene expressed in mouse); test: direct saturation binding of FITC-labeled construct to MHC class II immuno-adsorbed on Protein L/L243 beads; one-site fit
Histone complex (Sigma) = test: SPR (Biacore 3000), histone complex amine coupled to CM5 chip, RTL1000 injected; 1:1 Langmuir model with drifting baseline
[9] = biological target: RTL binding sites on CD11b+ monocytes of DR*1501-Tg mice; test: flow cytometry; naive CD11b+ monocytes incubated with 1 µg RTL1000 FITC (1 hour at 37 °C by the text); upper row of panels
[10] = biological target: RTL binding sites on CD11b+ monocytes of DR*1501-Tg mice; test: flow cytometry; naive CD11b+ monocytes incubated with 5 µg RTL1000 FITC (1 hour at 37 °C by the text); upper row of panels
[11] = biological target: low affinity binding site for RTL on MHC class II deficient mouse splenocytes; test: competition on whole cells of MHC class II knockout mice: labeled RTL1000 against increasing unlabeled RTL1000; SDS-PAGE fluorescence densitometry
[12] = biological target: RTL binding sites on CD11c+ cells of DR*1501-Tg mouse blood; test: flow cytometry; blood of naive DR*1501-Tg mice 15 minutes after injection of 500 µg FITC-labeled RTL; monocyte gate, live cells; No RTL (pre-injection) panel 0.12%
[13] = biological target: RTL binding sites on CD19+ cells of DR*1501-Tg mouse blood; test: as above
[14] = biological target: RTL binding sites on CD3+ cells of DR*1501-Tg mouse blood; test: as above
[15] = biological target: RTL binding sites on CD11b+ monocytes of DR*1501-Tg mice; test: flow cytometry; blood of naive DR*1501-Tg mice 15 minutes after injection of 500 µg FITC-labeled RTL; monocyte gate, live cells; No RTL (pre-injection) panel 0.14%
[16] = biological target: RTL binding sites on CD11b+ monocytes of DR*1501-Tg mice; test: flow cytometry; blood of naive DR*1501-Tg mice 15 minutes after injection of 500 µg FITC-labeled RTL; LYMPHOCYTE gate, live cells; No RTL (pre-injection) panel 0.00%
[17] = biological target: RTL binding sites on CD11c+ cells of DR*1501-Tg mouse blood; test: flow cytometry; blood of naive DR*1501-Tg mice 15 minutes after injection of 500 µg FITC-labeled RTL; lymphocyte gate, live cells; No RTL (pre-injection) panel 0.00%
[18] = biological target: RTL binding sites on CD19+ cells of DR*1501-Tg mouse blood; test: as above
[19] = biological target: RTL binding sites on CD3+ cells of DR*1501-Tg mouse blood; test: flow cytometry; blood of naive DR*1501-Tg mice 15 minutes after injection of 500 µg FITC-labeled RTL; lymphocyte gate, live cells; No RTL (pre-injection) panel 0.05%
[20] = biological target: RTL binding sites on CD19+ cells of DR*1501-Tg mouse blood; test: flow cytometry; blood of naive DR*1501-Tg mice incubated in vitro with FITC-labeled RTL (legend: 500 µg), 90 minutes post-treatment; monocyte gate; No RTL (pre-treatment) panel 0.00%
[21] = biological target: RTL binding sites on CD3+ cells of DR*1501-Tg mouse blood; test: as above
[22] = biological target: RTL binding sites on CD11b+ monocytes of DR*1501-Tg mice; test: flow cytometry; blood of naive DR*1501-Tg mice incubated in vitro with FITC-labeled RTL (legend: 500 µg), 90 minutes post-treatment; monocyte gate; No RTL (pre-treatment) panel 0.07%
[23] = biological target: RTL binding sites on CD11c+ cells of DR*1501-Tg mouse blood; test: flow cytometry; blood of naive DR*1501-Tg mice incubated in vitro with FITC-labeled RTL (legend: 500 µg), 90 minutes post-treatment; monocyte gate; No RTL (pre-treatment) panel 0.09%
[24] = biological target: RTL binding sites on CD11b+ monocytes of DR*1501-Tg mice; test: flow cytometry; blood of naive DR*1501-Tg mice incubated in vitro with FITC-labeled RTL (legend: 500 µg), 90 minutes post-treatment; LYMPHOCYTE gate; No RTL (pre-treatment) panel 0.00%
[25] = biological target: RTL binding sites on CD11c+ cells of DR*1501-Tg mouse blood; test: flow cytometry; blood of naive DR*1501-Tg mice incubated in vitro with FITC-labeled RTL (legend: 500 µg), 90 minutes post-treatment; lymphocyte gate; No RTL (pre-treatment) panel 0.00%
[26] = biological target: RTL binding sites on CD19+ cells of DR*1501-Tg mouse blood; test: as above
[27] = biological target: RTL binding sites on CD3+ cells of DR*1501-Tg mouse blood; test: as above
[28] = biological target: low affinity binding site for RTL on MHC class II deficient mouse splenocytes; test: competition on whole cells of MHC class II knockout mice: labeled RTL1000 against increasing unlabeled RTL340; SDS-PAGE fluorescence densitometry
[29] = biological target: T1, CD74 (MHC class II invariant chain) of DR*1501-Tg mouse splenocytes and monocytes (mouse, UniProt P04441-2 1-215, limits assumed, surface biotinylated in the immunoprecipitation experiments); test: competition of unlabeled DR-α1 with FITC-labeled RTL1000 (320 nM) for immunoprecipitated CD74; gel densitometry; one-site competition fit
T1 construct: Native protein from mouse cells; also called p31
T1 sequence (looked up): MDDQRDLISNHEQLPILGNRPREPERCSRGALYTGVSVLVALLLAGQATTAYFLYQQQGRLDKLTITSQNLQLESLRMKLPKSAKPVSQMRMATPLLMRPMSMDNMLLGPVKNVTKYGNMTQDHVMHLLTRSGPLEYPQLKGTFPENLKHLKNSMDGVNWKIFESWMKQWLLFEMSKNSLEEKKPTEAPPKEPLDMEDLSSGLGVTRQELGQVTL

[30] = biological target: T1, CD74 (MHC class II invariant chain) of …; test: direct saturation binding of FITC-labeled construct to CD74 immuno-adsorbed on Protein L/ln-1 beads; SDS-PAGE densitometry; one-site fit
[31] = free peptide 10 μg i.v. daily for 5 days from onset

Molecule: mMOG-35-55 peptide: free mouse MOG-35-55 peptide, MEVGWYRSPFSRVVHLYRNGK (SEQ ID NO: 50) (Synthetic peptide - mouse MOG 35-55) [reference compound]
CDI [1, 31]: 31.5 ± 9.8 | Incidence [1, 31]: 5/5 | Mortality [1, 31]: 0 | Onset [1, 31]: 11.2 ± 1.2 | Peak [1, 31]: 3.0 ± 0.9 | effect on EAE (in words) ([1]; mMOG-35-55-induced EAE): did not produce significant inhibition of EAE

Molecule: RTL340 (pDR2/MBP-85-99) (peptide-MHC)
EC50 [3]: 140 nM | EC50 [7]: 43.2 nM | IC50 (read off the curve) [28]: 60 nM

Next, values leading:

CD74 expression on naive CD11b+ monocytes after 1 µg RTL1000: % of cells in the upper right quadrant (CD11b APC+, CD74 PE+) [2]: 42% | CD74 expression on naive CD11b+ monocytes after 5 µg RTL1000: % of cells in the upper right quadrant (CD11b APC+, CD74 PE+) [2]: 9.84% | CD74 expression on naive CD11b+ monocytes after 10 µg RTL1000: % of cells in the upper right quadrant (CD11b APC+, CD74 PE+) [2]: 7.32% | EC50 [3]: 11 nM | EC50 [4]: 4000 nM | Kd [5]: 2.65 nM | Kd [6]: 131 nM | EC50 [7]: 71.1 nM | Kd [8]: 1.14 nM | Kd (Histone complex (Sigma)): 575 nM | % of cells in the upper right quadrant (CD11b APC+, RTL1000 FITC+) [9]: 55.8% | % of cells in the upper right quadrant (CD11b APC+, RTL1000 FITC+) [10]: 69.5% | IC50 (read off the curve) [11]: 40 nM | % of cells in the upper right quadrant (CD11c APC+, RTL FITC+) [12]: 9.26% | % of cells in the upper right quadrant (CD19 APC+, RTL FITC+) [13]: 3.93% | % of cells in the upper right quadrant (CD3 PE+, RTL FITC+) [14]: 0.36% | % of cells in the upper right quadrant (CD11b PE+, RTL FITC+) [15]: 44.4% | % of cells in the upper right quadrant (CD11b PE+, RTL FITC+) [16]: 9.23% | % of cells in the upper right quadrant (CD11c APC+, RTL FITC+) [17]: 4.63% | % of cells in the upper right quadrant (CD19 APC+, RTL FITC+) [18]: 0.82% | % of cells in the upper right quadrant (CD3 PE+, RTL FITC+) [19]: 0.16% | % of cells in the upper right quadrant (CD19 APC+, RTL FITC+) [20]: 5.82% | % of cells in the upper right quadrant (CD3 PE+, RTL FITC+) [21]: 4.01% | % of cells in the upper right quadrant (CD11b PE+, RTL FITC+) [22]: 38.6% | % of cells in the upper right quadrant (CD11c APC+, RTL FITC+) [23]: 6.77% | % of cells in the upper right quadrant (CD11b PE+, RTL FITC+) [24]: 3.96% | % of cells in the upper right quadrant (CD11c APC+, RTL FITC+) [25]: 4.4% | % of cells in the upper right quadrant (CD19 APC+, RTL FITC+) [26]: 1.26% | % of cells in the upper right quadrant (CD3 PE+, RTL FITC+) [27]: 1.49%
Molecule: RTL1000 (pDR2/hMOG-35-55) (peptide-MHC)

EC50 [29]: 447 nM | Kd [30]: 2.95 nM
B1: DR-α1 domain alone (no DR2-β1 domain or peptide) (other, UniProt P01903 26-109, looked up)
chain: IKEEHVIIQAEFYLNPDQSGEFMFDFDGDEIFHVDMAKKETVWRLEEFGRFASFEAQGALANIAVDKANLEIMTKRSNYTPITN
modifications: labeled with FITC in the direct binding assays
notes: domain: α1
